Reference: publication PMC4648099

What was measured:
[1] = molecular target: T1, thrombin (alpha-thrombin) (UniProt P00734;P00734 328-363;364-622); assay: competition (FAM fluorescence displacement); fit of pair TBA-FAM/TBA; 100 mM KCl; Fluorescence assays: 10 mM sodium cacodylate pH 7.2, 100 mM KCl, 20 °C, 20 nM FAM-aptamer (100 nM thrombin in displacement); EMSA: 1xTBE pH 8.3, 100 mM KCl (ann)
[2] = molecular target: T1, thrombin (alpha-thrombin); assay: competition (FAM fluorescence displacement); fit of pair TBA-FAM/TBA-N8; 100 mM KCl; Fluorescence assays: 10 mM sodium cacodylate pH 7.2, 100 mM KCl, 20 °C, 20 nM FAM-aptamer (100 nM thrombin in displacement); EMSA: 1xTBE pH 8.3, 100 mM KCl (ann)
[3] = molecular target: T1, thrombin (alpha-thrombin); assay: competition (FAM fluorescence displacement); TBA-FAM Kd fixed at 15 nM; 100 mM KCl; Fluorescence assays: 10 mM sodium cacodylate pH 7.2, 100 mM KCl, 20 °C, 20 nM FAM-aptamer (100 nM thrombin in displacement); EMSA: 1xTBE pH 8.3, 100 mM KCl (ann)

Binder	Kd [1] [nM]	Kd [2] [nM]	Kd [3] [nM]
GGTTGGTGTGGTTGG (structured_DNA, 3' hexaethyleneglycol linker) [TBA-FAM]	11.3	18.3	
GGTTGGTGTGGTTGG (structured_DNA) [TBA]	15.8		23.7
